Reference: patent publication US20220387557A1 (OXFORD UNIVERSITY INNOVATION, published 2022)

What was measured:
[1] = target: T1, Fc tagged mouse TNFR1 (Sino Biological) (mouse, UniProt P25118 22-212, limits assumed); experiment: SPR, Biacore single cycle kinetics, stability study, after 1 year at -20° C.
T1 construct: Bought reagent; also called mTNFR1; mTNFR1-Fc; not shown: Fc tag of the bought protein
T1 sequence (looked up): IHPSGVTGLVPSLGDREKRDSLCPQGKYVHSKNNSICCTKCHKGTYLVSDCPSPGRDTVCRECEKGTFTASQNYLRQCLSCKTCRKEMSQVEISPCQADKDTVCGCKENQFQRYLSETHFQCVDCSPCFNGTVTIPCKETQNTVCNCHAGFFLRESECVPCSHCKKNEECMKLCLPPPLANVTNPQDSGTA

[2] = target: T2, Fc tagged human TNFR1 (Sino Biological) (human, UniProt P19438 22-211, limits assumed); experiment: SPR, Biacore T200 multi cycle kinetics, receptor-Fc captured on Protein A chip, TNF 1.25-40 nM, 1:1 model
T2 construct: Bought reagent; also called hTNFR1; hTNFR1-Fc; not shown: Fc tag of the bought protein
T2 sequence (looked up): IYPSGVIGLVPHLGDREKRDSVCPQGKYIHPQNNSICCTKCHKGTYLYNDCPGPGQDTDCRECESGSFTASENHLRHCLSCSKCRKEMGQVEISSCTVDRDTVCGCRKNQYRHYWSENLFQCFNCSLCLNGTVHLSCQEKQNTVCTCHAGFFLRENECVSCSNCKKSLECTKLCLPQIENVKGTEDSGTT
Method: (§1) Multi cycle kinetics analysis of binding to hTNFR1, hTNFR2, mTNFR1 and mTNFR2 was performed on the 10 lead variants using a Biacore T200 (serial no. 1909913) instrument running Biacore T200 Evaluation Software V3.0.1 (Uppsala, Sweden) to characterise further the binding to these receptors.
(§2) As with the single cycle kinetics, receptor binding was assessed in two separate experiments. In the first set of experiments binding to hTNFR1 (Fc2), hTNFR2 (Fc3) and mTNFR1 (Fc4) was assessed. In the second set of experiments the extent of mTNF2 (Fc4) binding was assessed using hTNFR1 (Fc2) and hTNFR2 (Fc3) as controls. All receptors were diluted in running buffer to a concentration of ˜4 μg/mL and at the start of each cycle loaded onto Fc2, Fc3 and Fc4 of a Protein A CM5 chip and captured at a flow rate of 10 μL/min to give an RU of ˜40-100. The surface was then allowed to stabilise. All kinetic data was obtained using a flow rate of 75 μl/min to minimise any potential mass transfer effects. […] The association phase of TNF was monitored for 280 seconds and the dissociation phase was measured for 2100 seconds. […] Regeneration of the Protein A surface was conducted using two injections of 10 mM glycine-HCL pH 1.5 at the end of each cycle. The signal from the reference channel Fc1 was subtracted from that of Fc2, Fc3 and Fc4 to correct for differences in non-specific binding to a reference surface, and a global Rmax parameter was used in the 1-to-1 binding model.

[3] = target: T3, Fc tagged human TNFR2 (Sino Biological) (human, UniProt P20333 23-257); experiment: as above
T3 construct: Bought reagent; also called hTNFR2; hTNFR2-Fc; not shown: Fc tag of the bought protein
T3 sequence (looked up): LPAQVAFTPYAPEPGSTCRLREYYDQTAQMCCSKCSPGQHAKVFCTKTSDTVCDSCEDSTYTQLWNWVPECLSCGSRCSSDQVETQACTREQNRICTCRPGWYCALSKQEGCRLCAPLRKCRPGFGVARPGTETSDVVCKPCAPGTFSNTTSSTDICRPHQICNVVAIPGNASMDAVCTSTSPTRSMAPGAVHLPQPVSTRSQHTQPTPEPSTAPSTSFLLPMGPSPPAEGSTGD
Method: as §1, §2

[4] = target: T1, Fc tagged mouse TNFR1 (Sino Biological); experiment: as above
Method: as §1, §2

Kd [1]: 85.1 pM
Kd [2]: 21.6 pM
Kd [3]: 407 pM
Kd [4]: 177 pM
B1: TNF mutein B2 (ligand)
chain: VRSSSRTPSDKPVAHVVANPQAEGQLQWLNRRANALLANGVELRDNQLVVPSEGLYLIYSQVLFKGQGCPSTHVLLTHTISRITASYSGKVNLLSAIKSPCQRETPEGAEAKPWYEPIYLGGVFQLEKGDRLSAEINRPDYLDFAESGQVYFGIIAL
notes: Human TNF mutein, TASYSG at positions 84-89; not shown: C-terminal FLAG tag and His6 tag from vector pANT65
